Patent publication US7803571B2, “Method for identifying IRS inhibitors or agonists” (Sanfoi-Aventis Deutschland GmbH, priority 2003, dated 2010)
Where a chain is given by its changes, count along the chain named. In names and notes the source's numbering stands. Each block holds one molecule with its values, some of them ahead of it.

How the values were obtained:
[1] = molecular target: T1, insulin receptor (Rattus norvegicus, UniProt P15127); test: In vitro phosphorylation assay: tyrosine phosphorylation of rIRS-1^449-664 by insulin receptor; format: biochemical
T1 construct: from tissue; host or cells: rat liver
T1 sequence (P15127 27-759 limits assumed): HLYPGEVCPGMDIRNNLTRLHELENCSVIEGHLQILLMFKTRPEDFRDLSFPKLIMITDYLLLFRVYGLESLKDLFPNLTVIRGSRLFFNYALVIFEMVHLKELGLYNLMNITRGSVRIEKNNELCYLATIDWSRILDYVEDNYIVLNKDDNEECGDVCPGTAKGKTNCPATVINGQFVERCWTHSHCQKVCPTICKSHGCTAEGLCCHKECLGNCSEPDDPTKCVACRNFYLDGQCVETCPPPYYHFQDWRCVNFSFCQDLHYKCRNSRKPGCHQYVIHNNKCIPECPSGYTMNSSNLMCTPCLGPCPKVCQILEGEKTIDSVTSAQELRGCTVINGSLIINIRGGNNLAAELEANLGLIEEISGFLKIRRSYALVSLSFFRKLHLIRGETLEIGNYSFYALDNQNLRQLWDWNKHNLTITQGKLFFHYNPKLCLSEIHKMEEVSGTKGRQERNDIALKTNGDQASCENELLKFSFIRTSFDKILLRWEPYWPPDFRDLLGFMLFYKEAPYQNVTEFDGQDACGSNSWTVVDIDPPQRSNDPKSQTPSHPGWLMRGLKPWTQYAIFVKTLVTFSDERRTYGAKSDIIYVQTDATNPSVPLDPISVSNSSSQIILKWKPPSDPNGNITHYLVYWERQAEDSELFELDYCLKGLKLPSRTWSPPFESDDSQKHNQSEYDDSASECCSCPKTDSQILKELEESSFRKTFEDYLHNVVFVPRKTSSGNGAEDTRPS
Protocol: Rat liver was rapidly removed, immediately frozen in liquid nitrogen and processed as described (41). Briefly, 3.5 vol/wt of an ice-cold buffer consisting of 50 mM Hepes (pH 7.4), 1% Triton X-100 and 2× Complete Protease Inhibitors was added and the liver was homogenized using an Ultraturrax and a Potter-Elvehjem homogenizer, followed by centrifugation at 10,000×g for 10 min at 4° C. The resultant supernatant was slowly stirred at room temperature for 60 min, then again centrifuged at 100,000×g for 90 min at 4° C. The supernatant was then applied to an agarose-bound wheat germ agglutinin (WGA) column. The column was washed with 50 mM Hepes (pH 7.4), 0.1% Triton X-100, and bound glycoproteins were eluted from the WGA column with this buffer containing 0.3 M N-acetylglucoseamine.
For rIRS-1^449-664 phosphorylation by insulin receptor, […] of the WGA-purified glycoprotein fraction was preincubated for 30 min at 30° C. with 100 nM of insulin in a phosphorylation buffer containing 20 mM Hepes (pH 7.4), 1 mM DTT, 10 mM MgCl2, 100 μg/ml bovine serum albumin, 0.2 mM Na3VO4, 1.7 mM CaCl2, 0.6 mg/ml phosphatidylserine, and 0.5 μg/ml okadaic acid. Autophosphorylation was initiated by the addition of ATP at a concentration of 50 μM and continued for 10 min at 30° C. Substrate phosphorylations were initiated by addition of equal volumes of […] (1 μg) with or without pre-treatment (30 min) by the PKC isoforms in the same buffer in the presence of 50 μM ATP and was allowed to proceed for 10 min at 30° C. in a final volume of 50 μl. The reaction was terminated by the addition of 6× sample buffer (0.35 M Tris-HCl (pH 6.8), 10.28% (w/v) SDS, 36% (v/v) glycerol; 0.6 M DTT, 0.012% (w/v) bromphenol blue) and boiling for 5 min. Proteins were separated by SDS-PAGE and analyzed by immunodetection with an anti-phosphotyrosine antibody after transfer to nitrocellulose. Serine/threonine phosphorylation of rIRS-1^449-664 by different PKC isoforms was assessed by incubating 1 μg rIRS-1^449-664 with 0.5 μg PKC-rb or PKC-ζ in phosphorylation buffer for 30 min at 30° C. in the presence of 50 μM ATP plus 2 μCi [γ-^32P]ATP in a volume of 20 μl. Proteins were resolved by SDS-PAGE and the stained and dried gels were subjected to autoradiography. The extent of phosphate incorporation was determined by Cerenkov counting of excised fragments.
Proteins were separated by SDS-PAGE using 8-18% gradient gels followed by transfer to nitrocellulose in a semi-dry blotting apparatus. […] All blots were quantified using the Lumilmager software. Significance of reported differences was evaluated by using the null hypothesis and t statistics for unpaired data. […]

[2] = molecular target: T2, p85α (Bos taurus, UniProt P23727); test: GST pull down assay: interaction of rIRS-1^449-664 with p85α; format: binding, bovine; settings: for p85α binding after PKC-ζ treatment, % of control: insulin-stimulated control value set as 100%, n=3
T2 construct: GST (N, cleaved yes); made in house; host or cells: Escherichia coli BL21
T2 sequence (P23727 whole entry): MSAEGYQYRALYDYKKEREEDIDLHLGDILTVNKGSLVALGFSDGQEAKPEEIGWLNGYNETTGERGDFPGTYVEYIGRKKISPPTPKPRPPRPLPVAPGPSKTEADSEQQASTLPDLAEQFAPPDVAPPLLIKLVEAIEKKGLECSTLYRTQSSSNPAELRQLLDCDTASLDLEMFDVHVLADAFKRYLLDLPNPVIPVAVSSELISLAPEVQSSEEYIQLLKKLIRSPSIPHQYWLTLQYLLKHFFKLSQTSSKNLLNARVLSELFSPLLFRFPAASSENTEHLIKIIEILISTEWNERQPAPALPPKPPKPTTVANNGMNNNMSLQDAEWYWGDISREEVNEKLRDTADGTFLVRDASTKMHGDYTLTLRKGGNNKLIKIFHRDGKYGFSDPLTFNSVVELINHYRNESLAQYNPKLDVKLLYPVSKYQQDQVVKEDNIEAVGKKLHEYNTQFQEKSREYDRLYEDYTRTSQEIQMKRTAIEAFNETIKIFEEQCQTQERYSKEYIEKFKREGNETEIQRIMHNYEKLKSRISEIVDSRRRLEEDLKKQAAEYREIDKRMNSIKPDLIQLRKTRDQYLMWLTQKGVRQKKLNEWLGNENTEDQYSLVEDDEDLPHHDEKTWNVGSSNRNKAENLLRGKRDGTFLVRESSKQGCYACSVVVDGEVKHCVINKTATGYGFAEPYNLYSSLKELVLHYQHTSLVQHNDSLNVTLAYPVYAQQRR
Protocol: In vitro phosphorylated rIRS-1^449-664 was incubated with glutathione sepharose beads on a rotator for 1 h at 4° C. Pellets were washed three times with binding buffer (50 mM Tris (pH 7.4), 150 mM NaCl, 1% (v/v) Nonidet P-40, 1 mM EDTA, 1 mM NaF, 1 mM Na3VO4). Then 0.5 μg recombinant p85α was added and incubation was continued for 2 h at 4° C. After three times washing, the bound proteins were eluted with 20 μl of 2× sample buffer and separated by SDS-PAGE.
Proteins were separated by SDS-PAGE using 8-18% gradient gels followed by transfer to nitrocellulose in a semi-dry blotting apparatus. The membrane was then blocked 60 min in Tris-buffered saline containing 0.05% Tween 20 and 1% BSA or 5% non fat dry milk and probed with appropriate antibodies (anti-IRS-1, anti-pTyr, anti-p85α). After extensive washing, the membranes were incubated with horseradish peroxidase-conjugated secondary antibodies, again washed and then the protein bands were visualized by the enhanced chemiluminescence (ECL) method on a Lumilmager workstation (Boehringer, Mannheim, Germany). All blots were quantified using the Lumilmager software. Significance of reported differences was evaluated by using the null hypothesis and t statistics for unpaired data. A p value less than 0.05 was considered to be statistically significant.

Insulin-stimulated tyrosine phosphorylation, stimulation over basal ([1]; WGA-purified insulin receptor, 100 nM insulin, n=10): 8.8±1.1 fold | Reduction of tyrosine phosphorylation by IR after PKC-ζ pretreatment ([1]; wild type and mutant fusion proteins as substrate, relative to insulin-stimulated control): 30-40% | Interaction of p85α with the tyrosine phosphorylated fusion protein ([2]; after insulin-stimulated tyrosine phosphorylation by IR): significant increase
B1: rIRS-1^449-664: glutathione S-transferase (GST) fusion protein containing the amino acids 449-664 of rat IRS-1 (SEQ ID NO: 17) (protein)
chain: PPARGEEELSNYICMGGKGASTLTAPNGHYILSRGGNGHRYIPGATMGTSPALTGDEAAGAADLDNRFRKRTHSAGTSPTISHQKTPSQSSVVSIEEYTEMMPAAYPPGGGSGGRLPGYRHSAFVPTHSYPEEGLEMHHLERRGGHHRPDSSNLHTDDGYMPMSPGVAPVPSNRKGNGDYMPMSPKSVSAPQQIINPIRRHPQRVDPNGYMMMSPS
modifications: left off: a dimerising Fc or GST

p85α binding after PKC-ζ treatment, % of control [2]: 43±4 % of control
B2: S570A: serine 570 to alanine mutant of rIRS-1^449-664 GST fusion protein (protein, UniProt P35570 449-664, looked up, variant S570A)
chain: B1 chain with S122A
modifications: GST fusion
notes: serine 570 to alanine mutant of rIRS-1^449-664 GST fusion protein

p85α binding after PKC-ζ treatment, % of control [2]: 28±3 % of control
B3: S612A: serine 612 to alanine mutant of rIRS-1^449-664 GST fusion protein (protein, UniProt P35570 449-664, looked up, variant S612A)
chain: B1 chain with S164A
modifications: GST fusion
notes: serine 612 to alanine mutant of rIRS-1^449-664 GST fusion protein
